Test results taken from US20150368327A1 (YOKOHAMA CITY UNIVERSITY, published 2015).

Columns and labels:
[1] = biological target: T1, mouse Sema 3A protein (mouse, UniProt O08665 21-772, limits assumed); assay: competitive ELISA on plate-coated mouse Sema 3A; competitor biotin-labelled avian-mouse chimeric antibody (clone No. 4-2) at 60 ng/mL
T1 construct: Produced from mouse Sema 3A protein expressing cells; also called Mouse Sema 3A antigen
T1 sequence (looked up): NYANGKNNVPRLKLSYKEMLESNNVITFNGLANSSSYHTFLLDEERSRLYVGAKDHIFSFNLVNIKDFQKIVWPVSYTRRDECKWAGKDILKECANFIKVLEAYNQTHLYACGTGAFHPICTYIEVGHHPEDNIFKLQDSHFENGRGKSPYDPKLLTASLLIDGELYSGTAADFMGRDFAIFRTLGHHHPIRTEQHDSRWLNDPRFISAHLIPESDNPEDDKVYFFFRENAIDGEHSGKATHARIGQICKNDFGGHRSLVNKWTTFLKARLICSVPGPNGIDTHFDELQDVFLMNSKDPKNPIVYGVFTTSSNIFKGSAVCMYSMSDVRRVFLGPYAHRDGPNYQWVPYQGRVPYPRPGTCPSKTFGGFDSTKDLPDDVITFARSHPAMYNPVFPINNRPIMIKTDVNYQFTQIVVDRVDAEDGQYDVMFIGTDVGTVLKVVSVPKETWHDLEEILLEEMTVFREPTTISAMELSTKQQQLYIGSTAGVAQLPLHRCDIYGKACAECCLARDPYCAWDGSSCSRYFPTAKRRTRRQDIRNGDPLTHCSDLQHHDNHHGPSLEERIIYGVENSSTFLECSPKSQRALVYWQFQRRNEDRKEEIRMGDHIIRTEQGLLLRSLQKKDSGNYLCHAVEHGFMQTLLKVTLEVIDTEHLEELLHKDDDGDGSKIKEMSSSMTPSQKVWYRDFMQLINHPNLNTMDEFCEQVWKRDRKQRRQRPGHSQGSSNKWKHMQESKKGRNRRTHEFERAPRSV
Experimental: (§1) The obtained clone No. 4-2-derived avian-mouse chimeric antibody in Example 1, the obtained humanized antibodies in Example 2 (Humanized-1 and Humanized-2) and avian-human chimeric antibody were subjected to competitive ELISA to evaluate affinity to the antigen. CL18M (+) avian-mouse chimeric antibody, which served as a negative control, was also measured for affinity to the antigen. Particular measurement conditions were as follows.
(§2) Firstly, 2.5 μg/mL of antigen (mouse and human Sema 3A protein) was dispensed into a 384 Well MaxiSorp Plate (Nunc) and reacted overnight at 4° C. in order to coat the plate with the antigen. The next day, the plate was washed three times with 50 μL/well of washing solution (PBS containing 0.05% Tween 20), to which was added 25 μL/well of blocking solution (PBS containing 1% bovine serum albumin) and the mixture was reacted for 30 minutes. Each of humanized antibodies (Humanized-1 and Humanized-2), avian-human chimeric antibody and avian-mouse chimeric antibody was subjected to serial doubling dilution, to which was mixed anti-Sema 3A avian-mouse chimeric antibody labeled with biotin to the final concentration of 60 ng/mL, and the mixture was reacted with the antigen solid phase plate which was washed three times with 50 μL/well of washing solution for one hour. The plate was washed five times with 50 μL/well of washing solution, to which was added 20 μL/well of diluent in which streptavidin labeled with horseradish peroxidase (HRP) (Thermo Fisher Scientific K.K.) was diluted 10000 times with PBS buffer and the mixture was reacted for 30 minutes. The plate was washed five times with 50 μL/well of washing solution, to which was added 20 μL/well of TMB+(Dako) and the mixture was chromogenically reacted for 20 minutes. Subsequently, to the each well was added 20 μL, of 1M sulfuric acid to quench the reaction. The absorbance was measured at 450 nm using Infinite M1000 (Tecan Trading AG).

[2] = biological target: T2, human Sema 3A protein (human, UniProt Q14563 21-771, limits assumed); assay: competitive ELISA on plate-coated human Sema 3A; competitor biotin-labelled avian-mouse chimeric antibody (clone No. 4-2) at 60 ng/mL
T2 construct: also called Human Sema 3A antigen; human-derived Sema 3A protein
T2 sequence (looked up): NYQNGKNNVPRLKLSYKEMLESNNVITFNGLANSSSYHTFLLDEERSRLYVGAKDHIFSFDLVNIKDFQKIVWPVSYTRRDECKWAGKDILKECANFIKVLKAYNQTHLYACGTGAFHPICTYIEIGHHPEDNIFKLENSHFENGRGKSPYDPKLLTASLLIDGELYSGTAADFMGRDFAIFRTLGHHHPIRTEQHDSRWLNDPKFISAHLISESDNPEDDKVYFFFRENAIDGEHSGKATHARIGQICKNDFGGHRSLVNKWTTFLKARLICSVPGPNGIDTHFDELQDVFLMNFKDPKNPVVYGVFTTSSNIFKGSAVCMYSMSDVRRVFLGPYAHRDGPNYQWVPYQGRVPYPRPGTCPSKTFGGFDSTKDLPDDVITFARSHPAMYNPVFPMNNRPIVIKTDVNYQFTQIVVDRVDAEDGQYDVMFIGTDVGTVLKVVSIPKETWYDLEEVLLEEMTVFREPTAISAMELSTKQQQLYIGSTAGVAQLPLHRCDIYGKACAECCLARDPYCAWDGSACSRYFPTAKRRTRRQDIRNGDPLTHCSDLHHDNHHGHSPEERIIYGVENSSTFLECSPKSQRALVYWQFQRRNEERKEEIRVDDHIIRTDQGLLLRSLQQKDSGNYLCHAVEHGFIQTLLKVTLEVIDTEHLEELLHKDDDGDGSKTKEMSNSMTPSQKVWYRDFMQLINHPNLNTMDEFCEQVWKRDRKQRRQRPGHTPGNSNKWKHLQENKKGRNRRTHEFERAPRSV
Experimental: as §1, §2

B1: Anti-Sema 3A avian-mouse chimeric antibody (clone No. 4-2-derived) (antibody, mouse IgG2a)
heavy: AVTLDESGGGLQTPGGALSLVCKASGFTFSSYPMGWVRQAPGKGLEWVAGIDDDGDSDTRYAPAVKGRATISRDNGQSTVRLQLNNLRAEDTGTYYCAKHTGIGANSAGSIDAWGHGTEVIVSSAKTTAPSVYPLAPVCGDTTGSSVTLGCLVKGYFPEPVTLTWNSGSLSSGVHTFPAVLQSDLYTLSSSVTVTSSTWPSQSITCNVAHPASSTKVDKKIEPRGPTIKPCPPCKCPAPNLLGGPSVFIFPPKIKDVLMISLSPIVTCVVVDVSEDDPDVQISWFVNNVEVHTAQTQTHREDYNSTLRVVSALPIQHQDWMSGKEFKCKVNNKDLPAPIERTISKPKGSVRAPQVYVLPPPEEEMTKKQVTLTCMVTDFMPEDIYVEWTNNGKTELNYKNTEPVLDSDGSYFMYSKLRVEKKNWVERNSYSCSVVHEGLHNHHTTKSFSRTPGK
light: ALTQPASVSANLGGTVKITCSGGGSYTGSYYYGWYQQKSPGSALVTMIYYNNKRPSDIPSRFSGSLSGSTNTLTITGVRADDEAVYFCGSADNSGDAFGAGTTLTVLGQPKSSPSVTLFPPSSEELETNKATLVCTITDFYPGVVTVDWKVDGTPVTQGMETTQPSKQSNNKYMASSYLTLTARAWERHSSYSCQVTHEGHTVEKSLSRADCS
notes: Avian variable regions of clone No. 4-2 with mouse IgG2a heavy and mouse lambda light constant regions; also called anti-Sema 3A avian-mouse chimeric antibody (IgG)
Work on B1 yielded an IC50 [1] of 0.147 µg/mL and an IC50 [2] of 0.074 µg/mL.
